Conditions: Rattus norvegicus, pH 7, Thermal, CD, HEPES 10 mM, whole UniProt chain shown

B1: High mobility group protein B1 wild type, P63159 (protein)
chain: MGKGDPKKPRGKMSSYAFFVQTCREEHKKKHPDASVNFSEFSKKCSERWKTMSAKEKGKFEDMAKADKARYEREMKTYIPPKGETKKKFKDPNAPKRPPSAFFLFCSEYRPKIKGEHPGLSIGDVAKKLGEMWNNTAADDKQPYEKKAAKLKEKYEKDIAAYRAKGKPDAAKKGVVKAEKSKKKKEEEDDEEDEEDEEEEEEEEDEDEEEDDDDE
20 °C, NiSO4 1 mM
  unfolding free energy: 2.7 kcal/mol
NiSO4 1 mM
  Tm: 40.6 °C
  unfolding enthalpy (van 't Hoff): 35.7 kcal/mol
  Tm: 40.6 °C
  unfolding enthalpy (van 't Hoff): 35.7 kcal/mol

Reference: FireProtDB (doi:10.1093/protein/15.10.817)
